Publication PMC6264593

How the values were obtained:
Assay in all cases: SPR; Fcγ receptor affinities (KD) by Surface Plasma Resonance; mAb up to 6.4 µM
hFcγRI (human) = hFcγRI (human) (UniProt P12314)
hFcγRIIa (human) = hFcγRIIa (human) (UniProt P12318)
hFcγRIIb (human) = hFcγRIIb (human) (UniProt P31994)
mFcγRIII (mouse) = mFcγRIII (mouse) (UniProt P08508)
mFcγRIIb (mouse) = mFcγRIIb (mouse) (UniProt P08101)
mFcγRIV (mouse) = molecular target: mFcγRIV (mouse)
hFcγRIIIa (human) = hFcγRIIIa (human) (UniProt P08637)
Sequence of hFcγRIIIa (human) (P08637 17-254): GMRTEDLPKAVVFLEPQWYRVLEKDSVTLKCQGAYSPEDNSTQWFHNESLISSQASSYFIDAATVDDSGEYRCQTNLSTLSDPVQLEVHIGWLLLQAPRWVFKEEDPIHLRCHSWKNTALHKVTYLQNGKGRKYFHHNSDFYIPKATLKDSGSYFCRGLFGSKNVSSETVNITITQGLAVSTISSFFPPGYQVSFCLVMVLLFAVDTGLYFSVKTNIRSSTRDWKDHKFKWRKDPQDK

Sequence of mFcγRIIb (mouse) (P08101 30-330): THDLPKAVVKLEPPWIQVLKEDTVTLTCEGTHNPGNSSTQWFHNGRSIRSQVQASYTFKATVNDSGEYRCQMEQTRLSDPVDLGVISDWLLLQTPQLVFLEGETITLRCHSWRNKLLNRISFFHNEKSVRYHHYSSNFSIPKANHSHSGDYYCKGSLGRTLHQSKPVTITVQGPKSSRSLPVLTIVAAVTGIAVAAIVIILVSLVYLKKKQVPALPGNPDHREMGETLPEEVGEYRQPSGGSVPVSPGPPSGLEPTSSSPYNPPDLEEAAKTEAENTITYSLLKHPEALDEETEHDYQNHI
Sequence of hFcγRIIa (human) (P12318 34-317): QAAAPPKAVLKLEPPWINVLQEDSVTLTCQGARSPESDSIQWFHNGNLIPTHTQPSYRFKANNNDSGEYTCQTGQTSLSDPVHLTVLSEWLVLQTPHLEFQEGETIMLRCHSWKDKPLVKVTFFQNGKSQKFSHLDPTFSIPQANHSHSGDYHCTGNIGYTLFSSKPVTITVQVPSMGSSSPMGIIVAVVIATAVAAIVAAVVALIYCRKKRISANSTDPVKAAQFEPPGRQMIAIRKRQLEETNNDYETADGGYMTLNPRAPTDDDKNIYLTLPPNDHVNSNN
Sequence of hFcγRIIb (human) (P31994 43-310): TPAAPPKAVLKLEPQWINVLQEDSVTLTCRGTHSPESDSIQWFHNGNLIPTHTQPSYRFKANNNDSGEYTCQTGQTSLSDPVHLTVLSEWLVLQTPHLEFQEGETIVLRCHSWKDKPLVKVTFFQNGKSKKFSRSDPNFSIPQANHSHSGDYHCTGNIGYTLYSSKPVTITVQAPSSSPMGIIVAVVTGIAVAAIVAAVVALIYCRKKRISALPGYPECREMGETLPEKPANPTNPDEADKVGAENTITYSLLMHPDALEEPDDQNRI
Sequence of hFcγRI (human) (P12314 16-374): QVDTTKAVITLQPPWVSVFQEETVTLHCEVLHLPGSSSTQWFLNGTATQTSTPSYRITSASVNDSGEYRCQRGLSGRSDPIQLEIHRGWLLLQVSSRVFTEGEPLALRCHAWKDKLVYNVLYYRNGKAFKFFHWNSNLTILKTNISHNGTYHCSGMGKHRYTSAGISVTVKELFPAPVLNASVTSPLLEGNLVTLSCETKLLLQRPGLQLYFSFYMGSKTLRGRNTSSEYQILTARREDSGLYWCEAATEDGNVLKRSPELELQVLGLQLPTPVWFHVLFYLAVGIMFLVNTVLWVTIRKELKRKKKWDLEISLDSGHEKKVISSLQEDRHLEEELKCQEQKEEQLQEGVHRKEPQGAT
Sequence of mFcγRIV (mouse) (A0A0B4J1G0 21-249): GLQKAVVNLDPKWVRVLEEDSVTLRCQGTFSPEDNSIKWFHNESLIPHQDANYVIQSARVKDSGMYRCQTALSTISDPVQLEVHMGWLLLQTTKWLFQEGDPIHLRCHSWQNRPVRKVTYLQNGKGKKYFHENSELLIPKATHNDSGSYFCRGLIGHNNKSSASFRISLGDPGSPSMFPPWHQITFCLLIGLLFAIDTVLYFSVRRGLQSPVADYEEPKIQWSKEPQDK
Sequence of mFcγRIII (mouse) (P08508 31-261): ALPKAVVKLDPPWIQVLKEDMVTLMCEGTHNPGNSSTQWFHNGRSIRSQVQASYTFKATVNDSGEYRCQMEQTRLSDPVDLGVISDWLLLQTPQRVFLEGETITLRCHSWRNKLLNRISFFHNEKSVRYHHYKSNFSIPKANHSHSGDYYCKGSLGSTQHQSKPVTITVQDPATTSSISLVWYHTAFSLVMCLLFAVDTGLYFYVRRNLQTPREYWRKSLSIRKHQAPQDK

Kd (hFcγRI (human)) | Kd (hFcγRIIa (human)) | Kd (hFcγRIIb (human)) | Kd (mFcγRIII (mouse)) | Kd (mFcγRIIb (mouse)) | Kd (mFcγRIV (mouse)) | Kd (hFcγRIIIa (human)) | Substance
244 nM | 2640 nM | 1830 nM |  |  |  |  | SAR228810 (antibody)
 |  |  | 119 nM | 456 nM | 22 nM |  | 3D6mIgG2b (antibody)
 |  |  |  | > 4500 nM |  |  | SAR255952 (antibody)
0.86 nM | 794 nM | 2060 nM |  |  |  | 472 nM | 3D6-huIgG1 (antibody)
